Laboratory results taken from article PMC4686654, “A molecular ruler regulates cytoskeletal remodelling by the Rho kinases” (Nature Communications, 2015).

Tests used:
[1] = target: T1, RBD fragment of human ROCK2 (977-1,047) (human, UniProt O75116 977-1047); test: SEC; Superdex 75 in 20 mM Tris pH 7.5, 100 mM NaCl, 1 mM TCEP, 4 mM MgCl2; conditions: both partners purified
T1 chain: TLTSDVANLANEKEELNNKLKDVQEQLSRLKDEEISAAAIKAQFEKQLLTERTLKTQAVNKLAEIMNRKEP

[2] = target: human ROCK2 1-408 (kinase domain alone) (human); test: not stated; recombinant catalytic domain in solution; conditions: both partners purified
[3] = target: the molecule itself; test: static light scattering; recombinant ROCK2 in solution; mass 327 kDa, polydispersity index 1.000
[4] = target: the molecule itself; test: SEC; Superdex 75 in 20 mM Tris pH 7.5, 100 mM NaCl, 1 mM TCEP, 4 mM MgCl2

B1: RBD fragment of human ROCK2 (977-1,047) (domain or fragment)
chain: TLTSDVANLANEKEELNNKLKDVQEQLSRLKDEEISAAAIKAQFEKQLLTERTLKTQAVNKLAEIMNRKEP
modifications: none; His6 tag omitted. The limits are read in O75116 numbering: the fragment is said to match the crystal-structure RBD, and ROCK1 947-1015 (RhoBD 949-1015) aligns with O75116 979-1047 (RhoBD), so …
stoichiometry N [1]: 2

B2: human ROCK2 1-408 (kinase domain alone) (domain or fragment)
chain: MPGAPETAPGDGAGASRQRKLEALIRDPRSPINVESLLDGLNSLVLDLDFPALRKNKNIDNFLNRYEKIVKKIRGLQMKAEDYDVVKVIGRGAFGEVQLVRHKASQKVYAMKLLSKFEMIKRSDSAFFWEERDIMAFANSPWVVQLFYAFQDDRYLYMVMEYMPGGDLVNLMSNYDVPEKWAKFYTAEVVLALDAIHSMGLIHRDVKPDNMLLDKHGHLKLADFGTCMKMDETGMVHCDTAVGTPDYISPEVLKSQGGDGFYGRECDWWSVGVFLYEMLVGDTPFYADSLVGTYSKIMDHKNSLCFPEDAEISKHAKNLICAFLTDREVRLGRNGVEEIRQHPFFKNDQWHWDNIRETAAPVVPELSSDIDSSNFDDIEDDKGDVETFPIPKAFVGNQLPFIGFTYYR
modifications: paper residues 1-408 on the 1,379-residue form = O75116 10-417; activation loop not phosphorylated; constitutive dimer; tag cleaved / paper residues 1-408 on the 1,379-residue form = O75116 10-417 …
stoichiometry N [2]: 2

B3: human ROCK2 (Rho-associated coiled-coil kinase 2), full-length recombinant (enzyme)
chain: MPGAPETAPGDGAGASRQRKLEALIRDPRSPINVESLLDGLNSLVLDLDFPALRKNKNIDNFLNRYEKIVKKIRGLQMKAEDYDVVKVIGRGAFGEVQLVRHKASQKVYAMKLLSKFEMIKRSDSAFFWEERDIMAFANSPWVVQLFYAFQDDRYLYMVMEYMPGGDLVNLMSNYDVPEKWAKFYTAEVVLALDAIHSMGLIHRDVKPDNMLLDKHGHLKLADFGTCMKMDETGMVHCDTAVGTPDYISPEVLKSQGGDGFYGRECDWWSVGVFLYEMLVGDTPFYADSLVGTYSKIMDHKNSLCFPEDAEISKHAKNLICAFLTDREVRLGRNGVEEIRQHPFFKNDQWHWDNIRETAAPVVPELSSDIDSSNFDDIEDDKGDVETFPIPKAFVGNQLPFIGFTYYRENLLLSDSPSCRETDSIQSRKNEESQEIQKKLYTLEEHLSNEMQAKEELEQKCKSVNTRLEKTAKELEEEITLRKSVESALRQLEREKALLQHKNAEYQRKADHEADKKRNLENDVNSLKDQLEDLKKRNQNSQISTEKVNQLQRQLDETNALLRTESDTAARLRKTQAESSKQIQQLESNNRDLQDKNCLLETAKLKLEKEFINLQSALESERRDRTHGSEIINDLQGRICGLEEDLKNGKILLAKVELEKRQLQERFTDLEKEKSNMEIDMTYQLKVIQQSLEQEEAEHKATKARLADKNKIYESIEEAKSEAMKEMEKKLLEERTLKQKVENLLLEAEKRCSLLDCDLKQSQQKINELLKQKDVLNEDVRNLTLKIEQETQKRCLTQNDLKMQTQQVNTLKMSEKQLKQENNHLMEMKMNLEKQNAELRKERQDADGQMKELQDQLEAEQYFSTLYKTQVRELKEECEEKTKLGKELQQKKQELQDERDSLAAQLEITLTKADSEQLARSIAEEQYSDLEKEKIMKELEIKEMMARHKQELTEKDATIASLEETNRTLTSDVANLANEKEELNNKLKDVQEQLSRLKDEEISAAAIKAQFEKQLLTERTLKTQAVNKLAEIMNRKEPVKRGNDTDVRRKEKENRKLHMELKSEREKLTQQMIKYQKELNEMQAQIAEESQIRIELQMTLDSKDSDIEQLRSQLQALHIGLDSSSIGSGPGDAEADDGFPESRLEGWLSLPVRNNTKKFGWVKKYVIVSSKKILFYDSEQDKEQSNPYMVLDIDKLFHVRPVTQTDVYRADAKEIPRIFQILYANEGESKKEQEFPVEPVGEKSNYICHKGHEFIPTLYHFPTNCEACMKPLWHMFKPPPALECRRCHIKCHKDHMDKKEEIIAPCKVYYDISTAKNLLLLANSTEEQQKWVSRLVKKIPKKPPAPDPFARSSPRTSMKIQQNQSIRRPSRQLAPNKPS
modifications: mono- and diphosphorylated species, two adjacent serines (1,352-1,353)
stoichiometry N [3]: 2

B4: RBD fragment of human ROCK1 (947-1,015) (domain or fragment, UniProt Q13464 947-1015, looked up)
chain: MLTKDIEILRRENEELTEKMKKAEEEYKLEKEEEISNLKAAFEKNINTERTLKTQAVNKLAEIMNRKDF
notes: also called ROCK1 RBD; source: E. coli BL21 (DE3), purified (NiNTA, Superdex 75)
stoichiometry N [4]: 2
